From patent US7364741B1, “Peptides of human Papilloma virus for use in human T cell response inducing compositions” (priority 1992, dated 2008)
Where two headings read alike, the source gives them in different places.

Key:
[1] = target: T1, HLA-A2.1 (Homo sapiens, UniProt P04439, D140Y/D185E/D98H/E176V/E277Q/G131W/G231S/I119V/I121R/I166T/I218V/L300P/L318F/N151K/N90K/P208A/P217A/Q86G/Q94H/R138H/R169H/T345S); assay type: cell-based
T1 construct: endogenous in cells; host or cells: 174CEM.T2
Description: Of all peptides a dilution of 1 mg/ml in 0.9% NaCl was made.
174CEM.T2 cells were cultured in Iscovel's modified Dulbecco's medium (Biochrom KG Seromed Berlin, Germany: F0465) supplemented with 100 IU/ml penicillin (Biocades Pharma, Leiderdorp, The Netherlands), 100 μg/ml kanamycin (Sigma St. Louis, USA:K-0254), 2 mM glutamine (ICN Biomedicals Inc. Costa Mesa, Calif., USA:15-801-55) and 10% fetal calf serum (FCS, Hyclone Laboratories Inc. Logan, Utah, USA:A-1115-L). Cells were cultured at a density of 2.5×10^5/ml during 3 days at 37° C., 5% CO2 in humified air.
174CEM.T2 cells were washed twice in culture medium without FCS and put in serum-free culture medium to a density of 2×10^6 cells/ml. Of this suspension 40 μl was put into a V bottomed 96 well plate (Greiner GmbH, Frickenhausen, Germany: 651101) together with 10 μl of the individual peptide dilutions (of 1 mg/ml). The end concentration is 200 μg/ml peptide with 8×10^4 174CEM.T2 cells. This solution was gently agitated for 3 minutes after which an incubation time of 16 hours at 37° C., 5% CO2 in humified air took place. Then cells were washed once with 100 μl 0.9% NaCl, 0.5% bovine serum albumin (Sigma St. Louis, USA: A-7409), 0.02% NaN3 (Merck Darmstadt, Germany:822335). After a centrifuge round of 1200 rpm the pellet was resuspended in 50 μl of saturating amounts of HLA-A2.1 specific mouse monoclonal antibody BB7.2 for 30 minutes at 4° C. Then cells were washed twice and incubated for 30 minutes with F(ab)2 fragments of goat anti-mouse IgG that had been conjugated with […] (Tago Inc Burlingame, Calif., USA: 4350) in a dilution of 1:40 and a total volume of 25 μl.
After the last incubation, cells were washed twice and fluorescence was measured at 488 nanometer on a FACScan flow-cytometer (Becton Dickinson, Franklin Lakes, N.J., USA).
The 174CEM.T2 cell line expresses “empty” and unstable HLA-A2.1 molecules that can be stabilized when a peptide is binding to the peptide presenting groove of these molecules. […] This leads to an increase in cell surface expression of the HLA-A2.1 molecule.
With background fluorescence level (without adding peptides) set on a Fluorescence Index level of 0, binding of a peptide was regarded positive when the level of fluorescence was ≧0.5.

[2] = test system: HLA-A11.2; test: Immunochemical peptide-MHC binding assay, purified HLA-A11.2, radiolabeled probe […]; set-up: species or system human; details: for binding ratio to standard: IC50 of standard divided by IC50 of tested peptide, cysteines synthesized as alanine
Excerpt: (§1) The method utilizes purified class I molecules and radiolabeled synthetic probes based on consensus peptides. Competitor peptides tested for their binding to the class I molecules compete for this binding with the radiolabeled consensus peptides. The HLA-A1, A2.1, A3.2, A11.2, and A24 molecules were isolated from the following cell lines, respectively: the EBV (Eppstein Barr Virus) transformed cell line Steinlin, the EBV transformed cell line JY, the EBV transformed cell line GM3107, the cell line BVR and the EBV transformed cell line KT3. After large scale culture, cells were lysed in NP40 (Fluka Biochemika, Buchs, Switzerland) and the lysate was passed over two pre-columns of inactivated sepharose CL 4B and Prot A Sepharose. Class I molecules were then purified from the cell lysate by affinity chromatography using Prot A Sepharose beads conjugated with B2.23.2 (anti-HLA-B and HLA-C) and anti-human HLA. The lysate was first depleted of B and C molecules by repeated passage over the B2.23.2 column.
(§2) After two days at 23° C. the percent of MHC-bound radioactivity was measured by size exclusion chromatography on a TSK2000 gel filtration as described by Sette et al. (1992).
(§3) Probe peptides were iodinated by using the Chloramine T method described by Buus et al. (1987). The sequences of the probe peptides used for the aforementioned HLA molecules were […] (SEQ ID NO:76) for A1, […] (SEQ ID NO:77) for A2.1, […] (SEQ ID NO:78) for A3.2, […] (SEQ ID NO:79) for A11.2, and […] (SEQ ID NO:80) for A24.
(§4) Each competitor peptide was tested in two to four completely independent experiments. Since cysteine containing peptides are susceptible to (air) oxidation during synthesis and handling, these peptides were synthesized with an alanine instead of a cysteine.

[3] = target: T2, HLA-A3.2 (Homo sapiens, UniProt P04439); assay type: binding
T2 construct: endogenous in cells; host or cells: EBV transformed cell line GM3107 (protein purified from NP40 lysate)
Excerpt: as §1, §2, §3, §4

[4] = HPV16 peptides, 200 μg/ml peptide, 16 hours, 174CEM.T2 cells
[5] = HPV16 peptides, 200 μg/ml peptide, 16 hours, 174CEM.T2 cells, background set on 0, binding positive when ≧0.5
[6] = HLA-A3.2, IC50 of standard divided by IC50 of tested peptide, cysteines synthesized as alanine
[7] = HPV18 peptides, 200 μg/ml peptide, 16 hours, 174CEM.T2 cells
[8] = HPV18 peptides, 200 μg/ml peptide, 16 hours, 174CEM.T2 cells, background set on 0, binding positive when ≧0.5

T2 sequence (P04439 25-365): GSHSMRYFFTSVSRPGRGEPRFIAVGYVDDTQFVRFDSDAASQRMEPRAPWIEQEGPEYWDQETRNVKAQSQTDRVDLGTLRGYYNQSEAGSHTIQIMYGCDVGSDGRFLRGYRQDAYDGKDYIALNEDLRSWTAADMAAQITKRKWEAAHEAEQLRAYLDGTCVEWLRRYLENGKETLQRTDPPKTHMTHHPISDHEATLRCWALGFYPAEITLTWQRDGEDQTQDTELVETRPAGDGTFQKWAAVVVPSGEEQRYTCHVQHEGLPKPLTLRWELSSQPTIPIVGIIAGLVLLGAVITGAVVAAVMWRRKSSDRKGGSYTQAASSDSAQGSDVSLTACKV
T2 sequence (P61769 21-119, further chain): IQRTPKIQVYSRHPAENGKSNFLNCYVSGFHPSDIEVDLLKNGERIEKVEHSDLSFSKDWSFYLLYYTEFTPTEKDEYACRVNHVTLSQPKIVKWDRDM

CC[C@H](C)[C@H](NC(=O)CNC(=O)[C@H](CC(C)C)NC(=O)[C@@H](N)[C@@H](C)O)C(=O)N[C@H](C(=O)N[C@@H](CS)C(=O)N1CCC[C@H]1C(=O)N[C@H](C(=O)N[C@@H](CS)C(=O)O)[C@@H](C)CC)C(C)C [HPV16 peptide 18]
MF (mean HLA-A2.1 fluorescence) [1, 4]: 227.8
FI (Fluorescence Index) [1, 5]: 2.5

AMFQDPQER [residues 7-15 of HPV16 protein E6]
binding ratio to standard [2]: 0.8400

AVCDKCLKF [residues 68-76 of HPV16 protein E6]
binding ratio to standard [3, 6]: 0.0056
binding ratio to standard [2]: 0.0037

AVDLYHFLK [reference compound]
IC50 ([2]; read-out: 50% inhibition dose for the probe, unlabeled probe peptide): 9 nM

CCKCDSTLR [residues 58-66 of HPV16 protein E7]
binding ratio to standard [3, 6]: 0.0016
binding ratio to standard [2]: 0.0110

CCRSSRTRR [residues 146-154 of HPV16 protein E6]
binding ratio to standard [3, 6]: 0.0020

CMSCCRSSR [residues 143-151 of HPV16 protein E6]
binding ratio to standard [3, 6]: 0.1800
binding ratio to standard [2]: 0.0084

DTLEKLTNT [HPV18 peptide 8, residues 88-96 of HPV18 protein E6]
MF (mean HLA-A2.1 fluorescence) [1, 7]: 238.2
FI (Fluorescence Index) [1, 8]: 0.7

EITCVYCKT [HPV18 peptide 4, residues 29-37 of HPV18 protein E6]
MF (mean HLA-A2.1 fluorescence) [1, 7]: 206.0
FI (Fluorescence Index) [1, 8]: 0.5

ELQTTIHDI [HPV16 peptide 4, residues 25-33 of HPV16 protein E6]
MF (mean HLA-A2.1 fluorescence) [1, 4]: 108.0
FI (Fluorescence Index) [1, 5]: 0.6

ELTEVFEFA [HPV18 peptide 6]
FI (Fluorescence Index) [1]: 1.1
MF (mean HLA-A2.1 fluorescence) [1]: 289.0

FAFKDLFVV [HPV18 peptide 7, residues 47-55 of HPV18 protein E6]
MF (mean HLA-A2.1 fluorescence) [1, 7]: 462.9
FI (Fluorescence Index) [1, 8]: 2.3

FQQLFLNTL [HPV18 peptide 11, residues 86-94 of HPV18 protein E7]
MF (mean HLA-A2.1 fluorescence) [1, 7]: 244.5
FI (Fluorescence Index) [1, 8]: 0.8

GTLGIVCPI [HPV16 peptide 17, residues 85-93 of HPV16 protein E7]
MF (mean HLA-A2.1 fluorescence) [1, 4]: 216.1
FI (Fluorescence Index) [1, 5]: 2.3

HLDKKQRFH [residues 125-133 of HPV16 protein E6]
binding ratio to standard [3, 6]: 0.4400

HYNIVTFCC [residues 51-59 of HPV16 protein E7]
binding ratio to standard [3, 6]: 0.0260
binding ratio to standard [2]: 0.0010

IHDIILECV [HPV16 peptide 7, residues 30-38 of HPV16 protein E6]
MF (mean HLA-A2.1 fluorescence) [1, 4]: 150.7
FI (Fluorescence Index) [1, 5]: 1.3

IILECVYCK [residues 33-41 of HPV16 protein E6]
binding ratio to standard [3, 6]: 1.5000
binding ratio to standard [2]: 6.7000

ISEYRHYCY [residues 80-88 of HPV16 protein E6]
binding ratio to standard [3, 6]: 0.0064
binding ratio to standard [2]: 0.4300

KCDSTLRLC [residues 60-68 of HPV16 protein E7]
binding ratio to standard [3, 6]: 0.0012

KFYSKISEY [residues 75-83 of HPV16 protein E6]
binding ratio to standard [3]: 0.0100
